Measured values from PMC5876331, “RING tetramerization is required for nuclear body biogenesis and PML sumoylation” (Nature Communications, 2018).
Several values for one entry are separate records, joined by “and”; a condition that tells them apart may be missing. Identical values can stand only once.

Key:
[1] = target: the molecule itself; assay: SEC-MALS; pooled gel filtration peaks of PML RING1-119 re-analysed on WTC-015S5 column, 40 μl injection, 0.5 ml min^-1, DAWN HELEOS-II MALS
[2] = target: the molecule itself; assay: AUC; sedimentation velocity, 200,000g, 25 °C, 20 mM Tris, 100 mM NaCl, pH 8.0, with/without 1 mM DTT; 1 mg ml^-1 (wild type also 5 mg ml^-1); SEDFIT c(s)
[3] = target: the molecule itself; assay: crystal structure; PML RING49-104 crystallised at 26 mg ml^-1, 500 mM ammonium sulfate, 1 M lithium sulfate, 100 mM sodium citrate, 4 °C; 1.6 Å, Zn SAD; 4 molecules per ASU

B1: PML RING1-119 (amino acids 1-119), wild type (domain or fragment, UniProt P29590 1-119, looked up)
chain: MEPAPARSPRPQQDPARPQEPTMPPPETPSEGRQPSPSPSPTERAPASEEEFQFLRCQQCQAEAKCPKLLPCLHTLCSGCLEASGMQCPICQAPWPLGADTPALDNVFFESLQRRLSVY
notes: PML, amino acids 1-119 (extended RING); theoretical molecular weight 13.1 kDa; also called extended RING; long version of PML RING; not shown: His6, N-terminal, cleaved
- stoichiometry N [1]: 4 and 2

B2: PML RING49-104 domain (amino acids 49-104), wild type (domain or fragment, UniProt P29590 49-104, looked up)
chain: EEEFQFLRCQQCQAEAKCPKLLPCLHTLCSGCLEASGMQCPICQAPWPLGADTPAL
notes: PML (promyelocytic leukemia protein), RING domain, amino acids 49-104; residues 51-97 visible in the electron density map; Two Zn ions per subunit; not shown: His6, N-terminal, cleaved
- stoichiometry N [2]: 2
- stoichiometry N [3]: 4
